# Assay results: US10745461B2, “Pulsed introduction of low-dose RANKL as a therapy for diet-induced atherosclerosis” (Saint Louis University, priority 2015, dated 2020)
# Entries after “also recorded” stand apart in the source; their conditions may differ.
# Assays:
# [1] = system: FoxP3+ CD8 T-cells (TcREG); assay: RANKL dose finding: FoxP3+ CD8 T-cells in bone marrow of FoxP3-GFP reporter mice; format: in vivo; settings: two consecutive days, 50 hours after first dose, lowest dose 0.125 mg/kg
# Protocol: (§1) FIGS. 1A, 1B and 1C indicate that TcREG are induced by activated osteoclasis. […] In the absence of RANK L treatment, very low level of conversion was observed after three days. […] ZA was administered intravenously one week prior to adoptive transfer of CD8 T-cells.
# (§2) It was first determined the dose of RANKL that produced the maximal number FoxP3^+ CD8 T-cells in the bone marrow. RANKL was administered into FoxP3-GFP reporter mice at various doses for two consecutive days. Fifty hours after first dose, the mice were sacrificed and the numbers of CD8 T-cells that were GFP positive cells in the bone marrow were measured. […] The increased levels of FoxP3 in the bone marrow could either be due to recruitment of TcREG to the bone marrow or induction of FoxP3 expression in cells that were FoxP3 negative. To test for induction FACS sorted the GFP negative population of CD8 (Thy 1.2+ that were CD44 negative or naïve) from the spleens and bone marrow to high purity (FIG. 1C first panel) and adoptively transferred them into congenically marked (Thy 1.1) OT-I Rag^−/− mice. […] In the absence of RANKL administration low levels […] CD8 T-cell were detected (FIGS. 1B and C second panel), but RANKL administration (0.125 mg/kg) yielded ˜1% […] Thy 1.2 T-cells (FIGS. 1B and 1C third panel). […]
# [2] = system: FoxP3+ CD8 T-cells (TcREG); assay: In vivo TcREG induction: GFP negative CD8 T-cells adoptively transferred into OT-I Rag-/- mice
# Protocol: as §1, §2
# [3] = system: FoxP3 induction in OT-I CD8 T-cells by osteoclasts; assay: TcREG (FoxP3) induction in OT-I CD8 T-cells co-cultured with bone marrow-derived osteoclasts; format: cell-based, mice; settings: 10 ng/ml or 20 ng/ml TNFα, OVA
# Protocol: It was also determined that IL-17 and TNFα suppresses TcREG induction by osteoclasts. […] Another possibility is that loss of estrogen leads to increased production of the pro-inflammatory cytokines by T-cells that increase osteoclast activity. Without being limited to any method of operation, it is actually expected that in the presence of pro-inflammatory cytokines osteoclasts fail to induce TcREG. As estrogen depletion lead to greater number of osteoclasts because of a decreased Fas ligand expression, the loss of TcREG induction and increased osteoclast numbers would tip the balance towards increased osteoclast resorption and net bone loss. To test fir this possibility, OC-iTcREG induction was measured in the presence of IL-17 and TNFα. […] To understand the underlying mechanism of how TNFα affects osteoclasts' ability to induce TcREG, the signals provided by osteoclasts to induce FoxP3 in the CD8 T-cells were investigated along with if these signals were affected by […].
# The most common and well-studied costimulatory signals on antigen-presenting cells are CD80 (B7.1) and CD86 (B7.2). As CD80/CD86 double knockout mice are commercially available, osteoclasts were generated from bone marrow precursors of these mice. The CD80/CD86 null osteoclasts (as well as wild-type controls) were then used to prime OT-I T-cells in the presence and absence of antigen. […] OT-I CD8 T-cells activated by CD80/CD86 null osteoclasts produced IL-6, IL-2 and IFN-γ to levels indistinguishable from wild-type mice (FIG. 4B). Having ruled out CD80/CD86 as the costimulatory molecules, an osteoclast microarray dataset was queried for other costimulatory molecules expressed by osteoclasts. Osteoclasts that express CD200 and c-Mer were found. The role of CD200 was chosen for testing based on the phenotype of CD200^−/− mice and the reported role for CD200 in regulating TcREG.
# The most, well characterized regulator of FoxP3 in T-cells is TGFβ. It has been previously shown that neutralization or addition of TGFβ has no effect on the induction of TcREG. Therefore identification of other pathways that can regulate the FoxP3 promoter in T-cells was sought. A number of previous studies have identified that the Notch signaling contributes to FoxP3 induction. To test if Notch signaling is important for TcREG induction by osteoclasts, the γ-Secretase inhibitor DAPT was initially used. Ligation of the Notch receptor by its ligand leads to cleavage of Notch by γ-secretase. […] Next, we identified the Notch ligands expressed in osteoclasts using reverse-transcription followed by PCR. […] Of the four, the osteoclast-precursors (bone marrow cells treated with M-CSF but not RANKL) express all of the ligands except DLL4 (FIG. 5C). To assess the role of DLL4 in TcREG (soluble) DLL4-Fc was added to OT-I CD8 T-cells prior to co-culturing with osteoclasts. […] To assess the role of DLL4 in vivo the induction experiments as described in FIG. 1 were performed: GFP negative (polyclonal) CD8 T-cells were purified by cell sorting and transferred into OT-II Rag^−/− mice. Two hours prior to RANKL treatment, DLL4-Fc or a control IgG1-Fc, were injected intravenously into the recipient mice, As described for FIG. 1, RANKL (0.125 mg/kg) was then administered on two consecutive days.
# DLL-4 expression is repressed in the presence of […] and IL-17 but can be de-repressed by RANKL. […]
molecule,measurement,setting,value
"receptor activator of NF-κB ligand (protein, UniProt O35235 139-316, looked up, GST tag) Tumor necrosis factor ligand …: FSGAPAMMEGSWLDVAQRGKPEAQPFAHLTINAASIPSGSHKVTLSSWYHDRGWAKISNMTLSNGKLRVNQDGFYYLYANICFRHHETSGSVPTDYLQLMVYVVKTSIKIPSSHNLMKGGSTKNWSGNSEFHFYSINVGGFFKLRAGEEISIQVSNPSLLDPDQDATYFGAFKVQDID",proportion of FoxP3+ CD8 T cells in the bone marrow as a function of RANKL dose,[1],induced the largest proportion of FoxP3^+ CD8 T cells
same,TcREG induction by RANKL,"[2]; 0.125 mg/kg, 50 hrs after RANKL treatment, 3 days after T-cell transfer",robustly induced TcREG
same,GFP+ Thy 1.2 T-cells after RANKL administration,"[2]; RANKL 0.125 mg/kg, OT-I Rag-/- recipients",~1%
same,restoration of TcREG induction by additional RANKL in the presence of TNFα,[3],restores induction of TcREG; also recorded: the induction of TcREG was also restored
